Laboratory results published in PMC3319868.
Like-named read-outs stand apart in the source and are kept apart here.

B1: wild type HRE (OL568/OL569) (dsDNA)
DNA 1: AGCTTGCCCTACGTGCTGTCTCAGA
DNA 2: TCTGAGACAGCACGTAGGGCAAGCT
B2: mutated HRE (OL570/OL571) (dsDNA)
DNA 1: AGCTTGCCCTAGCTGCTGTCTCAGA
DNA 2: TCTGAGACAGCAGCTAGGGCAAGCT

Key:
HIF-1α;ARNT (HIF-1β) [1] = biological target: T1, HIF-1α;ARNT (HIF-1β) (human;human?, UniProt Q16665;P27540 1-826;1-789, |); experiment: competition
HIF-1α;ARNT (HIF-1β) [2] = biological target: T1, HIF-1α;ARNT (HIF-1β); experiment: competition; remark: listed apart in the source

T1 sequence (Q16665 whole entry, chain 1 of 2): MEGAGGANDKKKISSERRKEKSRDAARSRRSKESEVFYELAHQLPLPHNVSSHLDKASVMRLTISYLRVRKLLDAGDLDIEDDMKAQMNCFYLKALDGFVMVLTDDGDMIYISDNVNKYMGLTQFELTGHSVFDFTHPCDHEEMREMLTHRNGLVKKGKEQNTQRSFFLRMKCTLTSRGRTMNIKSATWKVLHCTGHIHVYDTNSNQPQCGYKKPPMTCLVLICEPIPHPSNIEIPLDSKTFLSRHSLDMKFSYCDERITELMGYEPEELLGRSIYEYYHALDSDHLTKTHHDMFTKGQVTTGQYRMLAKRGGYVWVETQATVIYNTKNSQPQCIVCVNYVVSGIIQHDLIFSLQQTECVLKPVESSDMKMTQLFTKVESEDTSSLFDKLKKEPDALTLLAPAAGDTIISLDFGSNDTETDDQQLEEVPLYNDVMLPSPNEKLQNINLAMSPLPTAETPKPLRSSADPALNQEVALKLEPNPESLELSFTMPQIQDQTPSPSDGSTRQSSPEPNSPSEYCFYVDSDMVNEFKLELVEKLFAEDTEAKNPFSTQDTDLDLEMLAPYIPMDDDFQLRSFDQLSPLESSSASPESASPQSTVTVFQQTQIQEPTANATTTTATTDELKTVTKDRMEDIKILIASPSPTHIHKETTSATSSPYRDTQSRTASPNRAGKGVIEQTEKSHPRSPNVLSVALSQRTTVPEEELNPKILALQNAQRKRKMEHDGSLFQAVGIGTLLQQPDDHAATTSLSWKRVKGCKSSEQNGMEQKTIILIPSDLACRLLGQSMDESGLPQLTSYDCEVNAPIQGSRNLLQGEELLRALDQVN
T1 sequence (P27540 whole entry, chain 2 of 2): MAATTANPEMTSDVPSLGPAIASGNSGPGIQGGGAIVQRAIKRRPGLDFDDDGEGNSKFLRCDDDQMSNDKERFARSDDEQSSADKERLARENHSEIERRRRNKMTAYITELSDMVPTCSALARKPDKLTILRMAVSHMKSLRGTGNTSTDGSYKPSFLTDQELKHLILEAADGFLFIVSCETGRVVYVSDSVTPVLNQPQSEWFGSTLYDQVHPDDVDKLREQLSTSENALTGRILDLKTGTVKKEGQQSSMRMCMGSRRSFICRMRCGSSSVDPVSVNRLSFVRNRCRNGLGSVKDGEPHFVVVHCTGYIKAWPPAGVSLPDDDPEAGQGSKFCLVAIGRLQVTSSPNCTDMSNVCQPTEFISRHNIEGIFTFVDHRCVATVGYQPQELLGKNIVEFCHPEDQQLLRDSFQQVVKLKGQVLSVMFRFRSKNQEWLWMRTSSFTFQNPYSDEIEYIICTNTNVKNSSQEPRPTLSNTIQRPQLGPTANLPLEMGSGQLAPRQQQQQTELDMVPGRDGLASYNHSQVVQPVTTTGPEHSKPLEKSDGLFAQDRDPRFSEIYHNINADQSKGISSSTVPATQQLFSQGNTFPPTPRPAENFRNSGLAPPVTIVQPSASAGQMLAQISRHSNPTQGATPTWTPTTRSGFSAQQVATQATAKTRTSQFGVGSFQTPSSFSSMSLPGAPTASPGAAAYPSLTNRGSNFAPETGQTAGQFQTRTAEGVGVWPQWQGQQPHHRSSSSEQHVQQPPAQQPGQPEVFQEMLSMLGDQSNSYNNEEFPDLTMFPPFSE

Row | Binder | binding result (HIF-1α;ARNT (HIF-1β) [1]) | binding result (HIF-1α;ARNT (HIF-1β) [2])
1 | B1 | binds | –
2 | B2 | – | no binding
